From patent US20060024271A1 (priority 2004, published 2006)
Where two headings read alike, the source gives them in different places.

B1: IFN-γ (protein, UniProt P01579 24-161, looked up)
Interferon gamma: QDPYVKEAENLKKYFNAGHSDVADNGTLFLGILKNWKEESDRKIMQSQIVSFYFKLFKNFKDDQSIQKSVETIKEDMNVKFFNSNKKKRDDFEKLTNYSVTDLNVQRKAIHELIQVMAELSPAAKTGKRKRSQMLFRG

What was measured:
Format in all cases: in vivo, BALB/c mice
[1] = tested on: vaccinia virus; conditions: for survival of vaccinia infected mice: 5×10^3 U/mouse/day i.n., 5 days, started one day before infection, 8 LD50, 21 days monitoring
[2] = tested on: vaccinia virus; conditions: 8 LD50
[3] = tested on: vaccinia virus; conditions: IFN-γ 5,000 to 20,000 U i.n., daily for five days from one day after infection; 50 LD50

Row | Molecule | survival of vaccinia infected mice [1] [%] | protection against severe vaccinia infection ([1]; IFN-α 5,000 U intranasal, 50 LD50 as printed in b34 (FIG. 2)) | survival of vaccinia infected mice ([2]; IFN-γ 2,000 U only, i.n., 5 days from one day after infection) [%] | protection of vaccinia infected mice ([2]; IFN-γ 5,000 U) [%] | protection against severe vaccinia infection [3]
1 | IFN-α | 100 | 70-80% |  |  | 
2 | B1 | 90 |  | 80 | 100 | 70-80%
